Our source for the Counts/minute bound values is patent US20040092720A1 (US Dept. of Health and Human Services, published 2004).

The chains are these.
B1: Peptide A34 (peptide)
peptide: AAGSHPSRWAGMGRRLLLRSA
notes: alanine-scan variant of the domain I 21-mer
B2: Peptide A35 (peptide)
peptide: AAGSHPSRWAGMGRRLLLRAV
notes: as for B1
B3: Peptide A44 (peptide)
peptide: AAGSHPSRWAAMGRRLLLRSV
notes: as for B1
B4: Peptide A39 (peptide)
peptide: AAGSHPSRWAGMGRRALLRSV
notes: as for B1
B5: Peptide A43 (peptide)
peptide: AAGSHPSRWAGAGRRLLLRSV
notes: as for B1
B6: Peptide A37 (peptide)
peptide: AAGSHPSRWAGMGRRLLARSV
notes: as for B1
B7: Peptide A38 (peptide)
peptide: AAGSHPSRWAGMGRRLALRSV
notes: as for B1
B8: Peptide A40 (peptide)
peptide: AAGSHPSRWAGMGRALLLRSV
notes: as for B1
B9: Peptide A45 (peptide)
peptide: AAGSHPSRAAGMGRRLLLRSV
notes: as for B1
B10: Peptide A42 (peptide)
peptide: AAGSHPSRWAGMARRLLLRSV
notes: as for B1
B11: Peptide A36 (peptide)
peptide: AAGSHPSRWAGMGRRLLLASV
notes: as for B1
B12: Peptide A46 (peptide)
peptide: AAGSHPSAWAGMGRRLLLRSV
notes: as for B1
B13: Peptide A41 (peptide)
peptide: AAGSHPSRWAGMGARLLLRSV
notes: as for B1
B14: Peptide A47 (peptide)
peptide: AAGSHPARWAGMGRRLLLRSV
notes: as for B1
B15: Peptide C46 (peptide)
peptide: SSFYRLRAELRYRAERSKTFT
notes: alanine-scan variant of the domain III 21-mer
B16: Peptide C40 (peptide)
peptide: SSFYRLRFELRYRAARSKTFT
notes: as for B15
B17: Peptide C44 (peptide)
peptide: SSFYRLRFEARYRAERSKTFT
notes: as for B15
B18: Peptide C41 (peptide)
peptide: SSFYRLRFELRYAAERSKTFT
notes: as for B15
B19: Peptide C43 (peptide)
peptide: SSFYRLRFELAYRAERSKTFT
notes: as for B15
B20: Peptide C47 (peptide)
peptide: SSFYRLAFELRYRAERSKTFT
notes: as for B15
B21: Peptide C42 (peptide)
peptide: SSFYRLRFELRARAERSKTFT
notes: as for B15
B22: Peptide C39 (peptide)
peptide: SSFYRLRFELRYRAEASKTFT
notes: as for B15
B23: Peptide C35 (peptide)
peptide: SSFYRLRFELRYRAERSKTAT
notes: as for B15
B24: Peptide C45 (peptide)
peptide: SSFYRLRFALRYRAERSKTFT
notes: as for B15
B25: Peptide C37 (peptide)
peptide: SSFYRLRFELRYRAERSATFT
notes: as for B15
B26: Peptide C38 (peptide)
peptide: SSFYRLRFELRYRAERAKTFT
notes: as for B15
B27: Peptide C36 (peptide)
peptide: SSFYRLRFELRYRAERSKAFT
notes: as for B15

The assay addresses T1, recombinant human IL-6 (human, UniProt P05231 30-212, labeled with radioactive iodine).
T1 construct: Labeled probe in solution, added to wells that carry the synthetic peptides; also called IL-6 ligand; Interleukin-6
Briefly: radioiodinated IL-6 on peptide array. Here is the method:
Synthetic peptide arrays were constructed in 96-well microtiter plates in accordance with the method set forth in WO 91/02714 (Saxinger), and used to test the binding of recombinant human IL-6 that had been labeled with radioactive iodine (radiolabeling by standard methods). After incubating the radiolabeled IL-6 ligand in a well with each synthetic peptide, a washing step was performed to remove unbound label, and the relative level of radioactivity remaining in each well of the plate was evaluated to determine the relative affinity of each peptide for IL-6 ligand.
Consider PRSTPSLTTKAVLLVRKF [Peptide B4], for which the Counts/minute bound worked out at 4690 counts/minute.

As for RWAGMGRRLLLRSV [Peptide A24], the Counts/minute bound was 12100 counts/minute.

Regarding PRSTPSLTTKAVL [Peptide B9], the Counts/minute bound was 1400 counts/minute.

For WAGMGRRLLLRSV [Peptide A25], the Counts/minute bound turned out to be 12200 counts/minute.

As for AAGSHPSRWAG [Peptide A11], the Counts/minute bound is 1430 counts/minute.

Turning to AGSHPSRWAGMGRRLLLRSV [Peptide A18], the Counts/minute bound was 13400 counts/minute.

Consider AGMGRRLLLRSV [Peptide A26], for which the Counts/minute bound stood at 7620 counts/minute.

As for B1, the Counts/minute bound stood at 11800 counts/minute.

For B2, the Counts/minute bound is 11200 counts/minute.

Take B3: the Counts/minute bound stood at 11900 counts/minute.

B4: the Counts/minute bound turned out to be 5280 counts/minute.

For B5, the Counts/minute bound came out at 13500 counts/minute.

As for B6, the Counts/minute bound was determined as 7730 counts/minute.

Take B7: the Counts/minute bound is 7080 counts/minute.

On to B8, for which the Counts/minute bound was 4250 counts/minute.

As to B9, the Counts/minute bound was determined as 8040 counts/minute.

For B10, the Counts/minute bound was determined as 12300 counts/minute.

With B11, the Counts/minute bound stood at 4900 counts/minute.

Turning to B12, the Counts/minute bound amounted to 9520 counts/minute.

As to B13, the Counts/minute bound was 4460 counts/minute.

For the molecule B14, the Counts/minute bound was determined as 11300 counts/minute.

Take LLLRSV (also called LLLRSV) [Peptide A32]: the Counts/minute bound came out at 1600 counts/minute.

Consider SRWAGMGRRLLLRSV [Peptide A23], for which the Counts/minute bound was 8270 counts/minute.

On to AAGSHPSRWAGMGRR [Peptide A7], for which the Counts/minute bound was 1340 counts/minute.

As for AAGSHPSRWAGM [Peptide A10], the Counts/minute bound amounted to 1440 counts/minute.

AAGSHP (also called AAGSHP) [Peptide A16]: the Counts/minute bound is 1570 counts/minute.

In the case of AAGSHPSRWAGMGR [Peptide A8], the Counts/minute bound came out at 1480 counts/minute.

Take PRSTPSLTTKAVLLVRK [Peptide B5]: the Counts/minute bound stood at 3960 counts/minute.

As for AAGSHPS (also called AAGSHPS) [Peptide A15], the Counts/minute bound was found to be 1320 counts/minute.

For PRSTPSLTTKAVLLVR [Peptide B6], the Counts/minute bound came to 4360 counts/minute.

Turning to MGRRLLLRSV [Peptide A28], the Counts/minute bound was determined as 7140 counts/minute.

In the case of PRSTPSLTTKAVLLVRKFQN [Peptide B2], the Counts/minute bound was 7930 counts/minute.

In the case of SSFYRLRFELRYRAERSKTFA [Peptide C34], the Counts/minute bound stood at 17000 counts/minute.

As for B15, the Counts/minute bound was determined as 13400 counts/minute.

B16: the Counts/minute bound was determined as 17300 counts/minute.

Regarding B17, the Counts/minute bound worked out at 14100 counts/minute.

On to B18, for which the Counts/minute bound is 6740 counts/minute.

For the molecule B19, the Counts/minute bound worked out at 7550 counts/minute.

Take B20: the Counts/minute bound worked out at 9760 counts/minute.

Consider B21, for which the Counts/minute bound was 17500 counts/minute.

Consider B22, for which the Counts/minute bound is 3430 counts/minute.

For the molecule B23, the Counts/minute bound was found to be 14800 counts/minute.

With B24, the Counts/minute bound is 26800 counts/minute.

As for B25, the Counts/minute bound was determined as 7220 counts/minute.

Consider B26, for which the Counts/minute bound stood at 12300 counts/minute.

B27: the Counts/minute bound was 15000 counts/minute.

Consider RLLLRSV (also called RLLLRSV) [Peptide A31], for which the Counts/minute bound is 5460 counts/minute.

For GRRLLLRSV [Peptide A29], the Counts/minute bound worked out at 5370 counts/minute.

Regarding AAGSHPSRW [Peptide A13], the Counts/minute bound stood at 1520 counts/minute.

As for PRSTPSLTTKAVLLVRKFQ [Peptide B3], the Counts/minute bound is 7080 counts/minute.

With RSKTFT (also called RSKTFT) [Peptide C32], the Counts/minute bound is 1340 counts/minute.

Consider AAGSHPSR [Peptide A14], for which the Counts/minute bound was determined as 1350 counts/minute.

Consider GMGRRLLLRSV [Peptide A27], for which the Counts/minute bound stood at 6820 counts/minute.

As to PRSTPSLTTKAVLLV [Peptide B7], the Counts/minute bound was determined as 3400 counts/minute.

Consider RRLLLRSV [Peptide A30], for which the Counts/minute bound turned out to be 5970 counts/minute.

On to HPSRWAGMGRRLLLRSV [Peptide A21], for which the Counts/minute bound turned out to be 12000 counts/minute.

Consider AAGSHPSRWA [Peptide A12], for which the Counts/minute bound stood at 1330 counts/minute.

SHPSRWAGMGRRLLLRSV [Peptide A20]: the Counts/minute bound amounted to 12000 counts/minute.

Take ERSKTFT (also called ERSKTFT) [Peptide C31]: the Counts/minute bound is 1030 counts/minute.

In the case of GSHPSRWAGMGRRLLLRSV [Peptide A19], the Counts/minute bound was determined as 11000 counts/minute.

Regarding PSRWAGMGRRLLLRSV [Peptide A22], the Counts/minute bound amounted to 11100 counts/minute.

Regarding AAGSHPSRWAGMG [Peptide A9], the Counts/minute bound was 1470 counts/minute.
